{"source": "the DeepSol protein solubility set"}
{"assay": "soluble on expression in E. coli; label from the status in PepcDB or PDB records"}
{"sequence": "MAHHHHHHMNLNVSKDVNNYMKINGIIKKVDIKRYYNKKLNNWSYEDNAKEFDKKDEKEYGSKYEYNNKFINEEEKKDEEKKYRYDEKIHKGLYSEDNSTSMNNRYNNNESTYKMPKEILNRHEKIDLNSLPIDEEIINNLKIILNIEKLYMYQYIIYNEILKNSKHLLIYNKTGTGKTLSYLLPLIQKLINDKFDCNKKVLIITQNIYLCKQLYIYILSIYPTLNVCILSDEKESYNMNNNINNDIIVNIKRNNINPNDKENNDMCDEKYGIHFYLCTPNKLEYFIKNYKNKSRNDKNVMNNILNNINTIVIDEFDYIVEYRKNILNFFFKKDLFNEIHNNNNIRDKNRFNHDIFNKSNYNIYLFTANINEVIKKKIYEHLNGFVFFDFINGIKEHIQKQVAEQHNFNIDVLKNSENVVQLLNKENKNESLCNLNITHFVCKINSASKYKYVCYFLEEFFFHKQKISQKVYNDMVYDEYDKLNYRNMIPMEENKFVNNSEKEGNMKRSNADKINKCIIFANTKEEVEKLYEISLLKPHAVMMHSELLTIQKNENINLFKVGKKNVLITTDIISRGLDIDNVIFILNYSPPTSPNDYIHRSGRTGRGKEKGICLTMYHKYEYRNVDKIMKYTKNKFEVILCPK", "soluble on expression in E. coli": "not soluble"}
{"sequence": "MKNEDGIINILLMGTDARPNEDSSRSDAMMILTIDNKHNDIKLTSLARDSYVDIPGHGKQKLTHAYAYGQADLLIQTIEENFNIDIQNYACVNFESFMYIIDAIGGVEVTVEKGEIRELNKFIPETYKWNKSDDKGSIQYIRNSGKQTLNGYQALSFARIRHNDTAFARDGRQRQIIQAIIKKTETLPVTKYPGLLDAVLPYVKTNMKPNAILSLGAQVLKMGDLNIKQFEFPIDDEIHSTGGIYGKAGWVLRFDPDTLDILHDFIFNDIEFKQLEHHHHHH", "soluble on expression in E. coli": "soluble"}
{"sequence": "MGGSHHHHHHGMASGSPPTQPSPASDSGSGYVPGSVSAAFVTCPNEKVAKEIARAVVEKRLAACVNLIPQITSIYEWKGKIEEDSEVLMMIKTQSSLVPALTDFVRSVHPYEVAEVIALPVEQGNFPYLQWVRQVTESVSDSITVLP", "soluble on expression in E. coli": "soluble"}
{"sequence": "MSLKERFSPKMLSDITGVSIRTLHYYHEKGLLVPQQMSANGYRYYNVQDISKLQYILFLKELDLTLKQIQIYFEGDSDFRTKILHDNFYHIVKKRDRLNDIICTLEHHFHQDNEEIEVTTMQNFNLNEQYEKEAASKYGDTHYYQAYKDKQKSKDESEQQNHFEEINKQLNMFFDDMNQLYLNKVSILEASGKIKKLLCILKEQVPNCDNQFLEYIAQIYIEDERFVKFINKQRERGLNLYISDAIKTFIKEGHHHHHH", "soluble on expression in E. coli": "soluble"}
{"sequence": "MAHHHHHHMHNSVPASNTCSPFREETVSKRGKRSRGTGGDDKITRGTCSQPFSVITLPPGKLLEWLVCSPCRVYDVNLPRSRNNDNNISSLQCAVLPNFFVEYGGRSYSCVAKVCKPQLRKVLLRALAAVRQEMGSVDDIPHDSLLVVAVSPINAFSSECIHDASRTAMPRAREGCKIVGLCVARELSAPHRMHCESNWSHEKSEASGVGAAVQEGLGDCWEEDATRVGGTNNVRKAFCGVQLVWVADCYRRHGVAKVLVDTARRHISYGFEVPVERVAFSEPTSLGKLFAKSYSGRPDFLI", "soluble on expression in E. coli": "soluble"}
{"sequence": "GMAEAKSRVGRPSGDTQNRDKLILAARNLFIERPYAQVSIREIASLAGTDPGLIRYYFGSKEKLFSTMIHETAMPVLAQLHKARRETRQESPAALLQTYYSVMSKHPHFPRLMLRIAGLDQSLPENAEVTKAFYEVVNFENIAIFQRLKDKNLLKDDVDAHCAQLSFFAMMVFPFIVPENLLERVGIELTPDFLQLLAEQNTRLLQRGLMDVKDERDE", "soluble on expression in E. coli": "soluble"}
{"sequence": "MGSDKIHHHHHHMKLMIGKLFWDTGASMPCYPSLENDMICDMLVVGSGEAGAQIAYSLVKMGMRVTLIEKNMISCGSTAANTGLLQFLHDKSLTSLIHTFGEEKGVRAYKLCYEALRTMEKVVPTLDIDPQFIPRNSLYYASKSEDVSFLQEEYKTLQNYEFPVEYFTASDIKERYPFTRQAALYTHGDAEVNPYLLAHSLLHKANQMGANIYEHTEAIHIKKRQNDLICYTKTGNQIVAKNIIMATGYEALFGKKEKNTTVETSYAVVTNKVDSFEGWHEQSLIWETARPYLYFRTYENRIIVGGLDEAMKIQTIGDTKLLHKRDVLINIIKEMFPQYKDIQAEYYWAAAFGGSHDGLPILKEDNKIHNLFYALPYGGNGTVYGMVFAKIFEQLFTNKESEDFSLFNR", "soluble on expression in E. coli": "not soluble"}
{"sequence": "MFPIGEQPRILKDLAGINEDVQELAISGKTKNIELLGELKIRDLWIFTVNQTQFDKIMEYVNPEILYIDEMRVENLSKLQKMSNLRRLYLGWNPKNTDLWDLSYNNNLSYLLIQAFSKLEDLSPIKDGKKLEGLFLGGAIMKTLNVKTLDPIGDLVELNELTLMNIKVQDRSLEPLMNLKRLKKLNVSNQFPMEEYAKLSVVLQNTECEFFKPYVRMESTEGKDIMMIGRKRPFLNSKIDAEKIRKYEQEFKTVQEEFRDGMK", "soluble on expression in E. coli": "not soluble"}
{"sequence": "AIAQSRKQLPITNAVIHPVVLLGIVDHYNRACKNTRKRAVGILLGTIDRRGHAEVLNSFAVPFEEDERNPTVFFFDHDYVENMAAMFRKVTARERIIGWYSTGPQIRPADMGVHEIVQGFCSSGHALYVICQVDPKETGLPTEAYVSLEEDSVALEGSAPGQPRRIFEHVPNSIGALEAEEVGTEHLLRDVRNWSVSTLTGEVRAKLDALQSLRARLENIRRYLEEVASGNLPLHQEILHALQLVLKGLPRNAASSELTQAFAVCSNEQTLLIYVATLLRSVLVLHDLVNNKTELLETERKMEVAFSNATTAMDAPGSPTVADSL", "soluble on expression in E. coli": "soluble"}
{"sequence": "APTLISLLEVIEPEVLYSGYDSTLPDTSTRLMSTLNRLGGRQVVSAVKWAKALPGFRNLHLDDQMTLLQYSWMSLMAFSLGWRSYKQSNGNMLCFAPDLVINEERMQLPYMYDQCQQMLKISSEFVRLQVSYDEYLCMKVLLLLSTVPKDGLKSQAVFDEIRMTYIKELGKAIVKREGNSSQNWQRFYQLTKLLDSMHEMVGGLLQFCFYTFVNKSLSVEFPEMLAEIISNQLPKFKAGSVKPLLFHQK", "soluble on expression in E. coli": "soluble"}
{"sequence": "KGHAWTHSAGEPLRVVAIQGNIAQELKWDPNQVRAQLDLYRDLSLPQQDVDLIVWPETAVPILQDMASGYLGAMGQVADEKNAALITGVPVRERLADGKSRYFNGITVVGEGAGTYLKQKLVPFGEYVPLQDLLRGLIAFFDLPMSDFARGPADQPLLKAKGYQIAPYICYEVVYPEFAAALAAQSQVLLTVSNDTWFGTSIGPLQHLQMAQMRALESGRWMIRATNNGVTGLIDPYGRIVRQIPQFQQGILRGEVIPMQGLTPYLQYR", "soluble on expression in E. coli": "not soluble"}
{"sequence": "MAQNPNSFTDSVFGMIRNLLVSIRAGLFELTIKQPVTQNSLQRYQEEHREEKQQYLRQAILDLAEDSEEEDDGQPLDKETLSKMIAELTIERNNLRRSFNIVNEQRTGSKDRQHMEEEIRIQNWTKEDREELESGLAVMRQTIQESWKDAADCEQEKRSKNNQ", "soluble on expression in E. coli": "not soluble"}
{"sequence": "MMEYKIVENGLTYRIGNGASVPISNTGELIKGLRNYGPYEVPSLKYNQIALIHNNQFSSLINQLKSQISSKIDEVWHIHNINISEFIYDSPHFDSIKSQVDNAIDTGVDGIMLVLPEYNTPLYYKLKSYLINSIPSQFMRYDILSNRNLTFYVDNLLVQFVSKLGGKPWILNVDPEKGSDIIIGTGATRIDNVNLFCFAMVFKKDGTMLWNEISPIVTSSEYLTYLKSTIKKVVYGFKKSNPDWDVEKLTLHVSGKRPKMKDGETKILKETVEELKKQEMVSRDVKYAILHLNETHPFWVMGDPNNRFHPYEGTKVKLSSKRYLLTLLQPYLKRNGLEMVTPIKPLSVEIVSDNWTSEEYYHNVHEILDEIYYLSKMNWRGFRSRNLPVTVNYPKLVAGIIANVNRYGGYPINPEGNRSLQTNPWFL", "soluble on expression in E. coli": "soluble"}
{"sequence": "MEILASRMLLRPADYQRSLSFYRDQIGLAIAREYGAGTVFFAGQSLLELAGYGEPDHSRGPFPGALWLQVRDLEATQTELVSRGVSIAREPRREPWGLHEMHVTDPDGITLIFVEVPEGHPLRTDTRA", "soluble on expression in E. coli": "soluble"}
{"sequence": "AHHHHHHGSVKHYSVKVITAKSRTRLGLQLADARINELFNMIQDKTLRRDPLLISRRLVPSWATLNSFMLYFGLILAKEEVSISCTLESAT", "soluble on expression in E. coli": "not soluble"}
{"sequence": "MDNLVWDGIPDIRTLDQTIRKHAHPLNLIVCLPDNQIPDFQTAQDASDSECRLKHRLDQATQCLQFDSINLIEHILPDVRFWLVPPSRTRRLHEHFHHISWQTEAIPQTESKSDKPWFALPQTSERKKPEHVLVIGAGIAGASTAHALASHGISVTVLEARKAAQAASGNRQGLLYAKISPHDTGQTELLLAGYGYTKRLLGHILPDSDTWGGNGIIHLNYSRTEQQRNHELGLQKHHNHLYRSITSAEAEKIAGIPLNTPYAEPLCGLYWQHGVWLNPPAFVRTLLSHPLIELYENTTLTGISHDGEKWIASTPNGTFTATHIIYCTGAHSPCLPETNLAALPLRQIRGQTGLTPSTPFSEQLRCAVSGESYISPSWHGLHCYGASFIPNSSNTGWNEAEEASNRQALAHLNPALAESLFAANPNPQKHQGHAAIRCDSPDHLPVVGALGDIAAMRQTYAKLALDKNYRIDTTCPYLPNAYTNTAHGTRGLATAPICAAAVAAEILGLPHLFSQRLRHALHPNRTVIRAIVRRQNLIPLEHHHHHH", "soluble on expression in E. coli": "soluble"}
{"sequence": "MSLMPDKKGYIIDIDGVIGKSVTPIPEGVEGVKKLKELGKKIIFVSNNSTRSRRILLERLRSFGLEVGEDEILVATYATARFIAREKPNAKVFTTGEEGLIEELRLAGLEIVDYDEAEYLVVGSNRKINFELMTKALRACLRGIRYIATNPDRIFPAEDGPIPGTGMIIGALYWMTGREPDVVVGKPSEVIMREALDILGLDAKDVAVVGDQIDVDVAAGKAIGAETVLVLTGVTTRENLDQMIERHGLKPDYVFNSLKDMVEALEGEGHHHHHH", "soluble on expression in E. coli": "soluble"}
{"sequence": "GPGSMETTTHVVNPGEEGAYSSITEAINAAVDGDTVLLKPGLYEELPKVFKDITVTAERDASLTESETIVTNGIVIGSNATLKGLQVRGRVDVRKGHAVIEECDIHHGCDGIRVGEAAKLTVRRSRIHHCESGGDGIYFSTGSMGEVEDCDIYECRVNGVHANNARVVIARNRVRDVLFGFYFRGQSSGSVERNSVEHVSKFGIYVTEGSDPVVQGNMVRECGMHCAFVSQGGKGIWVDNSFDGSMHVHSGCDAKLGSNHVVGRLDVDPPT", "soluble on expression in E. coli": "not soluble"}
{"sequence": "MRMIVGHGIDIEELASIESAVTRHEGFAKRVLTALEMERFTSLKGRRQIEYLAGRWSAKEAFSKAMGTGISKLGFQDLEVLNNERGAPYFSQAPFSGKIWLSISHTDQFVTASVILEENHES", "soluble on expression in E. coli": "soluble"}
{"sequence": "MSRGDKMLKFEIKARDGAGRIGKLEVNGKKIETPAIMPVVNPKQMVVEPKELEKMGFEIIITNSYIIYKDEELRRKALELGIHRMLDYNGIIEVDSGSFQLMKYGSIEVSNREIIEFQHRIGVDIGTFLDIPTPPDAPREQAVKELEITLSRAREAEEIKEIPMNATIQGSTYTDLRRYAARRLSSMNFEIHPIGGVVPLLESYRFRDVVDIVISSKMALRPDRPVHLFGAGHPIVFALAVAMGVDLFDSASYALYAKDDRYMTPEGTKRLDELDYFPCSCPVCSKYTPQELREMPKEERTRLLALHNLWVIKEEIKRVKQAIKEGELWRLVDERARSHPKLYSAYKRLLEHYTFLEEFEPITKKSALFKISNESLRWPVVRRAKERAKSINERFGELVEHPIFGRVSRYLSLTYPFAQSEAEDDFKIEKPTKEDAIKYVMAIAEYQFGEGASRAFDDAKVELSKTGMPRQVKVNGKRLATVRADDGLLTLGIEGAKRLHRVLPYPRMRVVVNKEAEPFARKGKDVFAKFVIFADPGIRPYDEVLVVNENDELLATGQALLSGREMIVFQYGRAVKVRKGVE", "soluble on expression in E. coli": "soluble"}
